Target: c-Met on human cells (HPAF, A549, MKN-45) (human) (UniProt P08581)
Assay: cell-based or functional assay

Sequence of c-Met on human cells (HPAF, A549, MKN-45) (human) (P08581 25-1390): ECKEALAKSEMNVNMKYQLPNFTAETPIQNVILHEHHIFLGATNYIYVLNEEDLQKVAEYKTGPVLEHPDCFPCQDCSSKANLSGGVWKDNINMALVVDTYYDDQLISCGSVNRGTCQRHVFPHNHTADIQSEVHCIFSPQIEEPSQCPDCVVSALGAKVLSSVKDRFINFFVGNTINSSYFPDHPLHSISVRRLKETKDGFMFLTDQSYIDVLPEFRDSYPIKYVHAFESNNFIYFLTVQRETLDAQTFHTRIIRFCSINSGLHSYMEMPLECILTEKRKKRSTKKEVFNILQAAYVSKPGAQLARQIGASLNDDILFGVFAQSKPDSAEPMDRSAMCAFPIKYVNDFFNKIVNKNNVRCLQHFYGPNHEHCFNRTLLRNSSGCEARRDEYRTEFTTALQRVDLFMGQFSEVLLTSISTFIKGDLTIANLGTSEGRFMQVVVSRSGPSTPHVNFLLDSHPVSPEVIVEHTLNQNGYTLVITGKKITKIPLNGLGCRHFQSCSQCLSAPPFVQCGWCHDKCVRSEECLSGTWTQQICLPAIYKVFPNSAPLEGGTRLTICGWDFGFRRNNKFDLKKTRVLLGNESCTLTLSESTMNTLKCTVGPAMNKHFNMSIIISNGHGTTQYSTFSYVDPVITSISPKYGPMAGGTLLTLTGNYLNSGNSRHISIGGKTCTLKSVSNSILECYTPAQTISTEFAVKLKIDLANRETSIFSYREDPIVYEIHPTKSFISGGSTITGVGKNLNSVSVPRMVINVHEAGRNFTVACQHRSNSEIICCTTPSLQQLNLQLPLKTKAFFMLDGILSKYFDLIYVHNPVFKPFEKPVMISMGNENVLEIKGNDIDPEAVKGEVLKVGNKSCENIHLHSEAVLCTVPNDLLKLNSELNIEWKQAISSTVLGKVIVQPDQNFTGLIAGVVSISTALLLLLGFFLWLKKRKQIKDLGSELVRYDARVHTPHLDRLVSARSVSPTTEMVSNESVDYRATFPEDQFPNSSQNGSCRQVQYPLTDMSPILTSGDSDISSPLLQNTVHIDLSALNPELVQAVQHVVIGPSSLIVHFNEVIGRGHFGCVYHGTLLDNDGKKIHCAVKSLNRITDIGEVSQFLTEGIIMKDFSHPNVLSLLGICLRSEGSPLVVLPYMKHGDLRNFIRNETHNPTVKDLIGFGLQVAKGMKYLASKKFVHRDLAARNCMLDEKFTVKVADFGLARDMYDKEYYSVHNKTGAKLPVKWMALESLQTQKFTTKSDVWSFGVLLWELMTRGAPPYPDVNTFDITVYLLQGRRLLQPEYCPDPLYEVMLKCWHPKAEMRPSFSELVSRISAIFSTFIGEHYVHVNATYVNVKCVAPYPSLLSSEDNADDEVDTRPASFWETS

murine 5D5 antibody
down-regulation of total c-Met on the surface of MKN-45 cells (flow cytometry): 50 to 60%

— US20120148607A1
